Laboratory results taken from PMC8872791, “MadR mediates acyl CoA-dependent regulation of mycolic acid desaturation in mycobacteria” (Proceedings of the National Academy of Sciences of the …, 2022).

T1: MadR (Mycobacterium tuberculosis H37Rv) (UniProt P9WMD9)
T1 sequence: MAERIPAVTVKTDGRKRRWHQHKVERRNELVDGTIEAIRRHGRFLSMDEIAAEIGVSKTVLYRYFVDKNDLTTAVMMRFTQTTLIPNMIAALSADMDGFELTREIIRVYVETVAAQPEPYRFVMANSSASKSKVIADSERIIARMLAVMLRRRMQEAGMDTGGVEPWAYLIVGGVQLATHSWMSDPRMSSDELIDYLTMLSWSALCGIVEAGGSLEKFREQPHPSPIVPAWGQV

T2: MadR (Mycobacterium tuberculosis H37Rv, UniProt P9WMD9 1-234)
T2 sequence: T1 sequence

B1: desA1 promoter -19/+31 (dsDNA)
DNA 1: CAGTTATCTGTGTCTAATGGTTGCAGTCAATATATCTGTGTCTCTCGGTA
DNA 2: TACCGAGAGACACAGATATATTGACTGCAACCATTAGACACAGATAACTG
B2: desA2 promoter -36/+14 (dsDNA)
DNA 1: TTCACGAAATCTGTGTATGCGAGTTACAGTTACCGCATGGCACAGAAACC
DNA 2: GGTTTCTGTGCCATGCGGTAACTGTAACTCGCATACACAGATTTCGTGAA

Tests used:
[1] = biological target: T1, MadR (Mycobacterium tuberculosis H37Rv); assay: EMSA
MadR = biological target: T2, MadR; assay: EMSA; conditions: protein: recombinant; tags: His-tag implied (pET28a, cobalt IMAC); chain copies: 2; blunt

Row | Molecule | binding [1] | binding result (MadR)
1 | GGGCCGAACATACTCACCCGGATCGGAGGGCCGAGGACACGGTCGAACGAGGGGCATGACCCGGTGCGGGGCTTCTTGCACTCGGCATAGGCGAGTGCTAAGAATAACGTTGGCACTCGCGACCGGTGAGTGCTAGGTCGGGACGGTGAGGCCAGGCCCGTCGTCGCAGCGAGTGGCAGCGAGGACAACTTGAGCCGTCCGTCGCGGGCACTGCGCCCGGCCAGCGTAAGTAGCGGGGTTGCCGTCACCCGGTGACCCCCGTTTCATCCCCGATCCGGAGGAATCACTTCGCA (double strand) [hsp60 promoter] | no binding | –
2 | B1 | – | binds
3 | B2 | – | binds
